According to the supplement of paper PMC7125110:
± gives the standard error. For some assays here: Variants at the floor of the assay were thinned out.

B1: glmS ribozyme (parent)
chain: AUAAAAGCGCCAGAACUACAGAAAUGUAGUUGACGAGGAGGAGGUUUAUCGAAUUUUCGGCGGAUGCCUCCAAA

Experiments:
Conditions in all cases: with glucosamine-6-phosphate
glucosamine-6-phosphate [1] = variants of: B1; assay: kcat; higher = faster cleavage; RNA array
Outline: (§1)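 Tiles of sequenced MiSeq chips were imaged over ~14 h at 37 °C. On them, barcoded ribozyme variants had been transcribed in situ by E. coli RNA polymerase and were tracked via a hybridised Cy3 probe while glucosamine-6-phosphate (40 μM to 10 mM) in HEPES/KCl/Mg(OAc)2 buffer flowed in. Per-tile medians, normalised to baseline and to non-cleaving reference variants, were fit to one- or two-exponential decays for kobs, and weighted Michaelis–Menten fits gave kcat and KM.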

glucosamine-6-phosphate [2] = variants of: B1; assay: self-cleavage kobs at 2500 uM GlcN6P; higher = faster cleavage; RNA array
Outline: as §1

glucosamine-6-phosphate [3] = variants of: B1; assay: self-cleavage kobs at 10000 uM GlcN6P; higher = faster cleavage; RNA array
Outline: as §1

glucosamine-6-phosphate [4] = variants of: B1; assay: self-cleavage kobs at 40 uM GlcN6P; higher = faster cleavage; RNA array
Outline: as §1

glucosamine-6-phosphate [5] = variants of: B1; assay: self-cleavage kobs at 160 uM GlcN6P; higher = faster cleavage; RNA array
Outline: as §1

glucosamine-6-phosphate [6] = variants of: B1; assay: self-cleavage kobs at 640 uM GlcN6P; higher = faster cleavage; RNA array
Outline: as §1

glucosamine-6-phosphate [7] = variants of: B1; assay: KM; higher = weaker cofactor use; RNA array
Outline: as §1

Question: Which kcat (glucosamine-6-phosphate [1]) does the source give for AUAAAAGCGCCAGAACUACAGAAAUGUAGUUGACGAGGAGGAGGUUUAUCGAAUUUUCUGCGGAUGCCUCUAAA here?
Answer: 5.45e-05 ± 7.2e-06 s⁻¹

Question: And the “self-cleavage kobs at 2500 uM GlcN6P” value (glucosamine-6-phosphate [2])?
Answer: 2.79e-05 ± 1.3e-05 s⁻¹

Question: What about the “self-cleavage kobs at 10000 uM GlcN6P” value (glucosamine-6-phosphate [3]) of the same variant?
Answer: 4.88e-05 ± 8.4e-06 s⁻¹

Question: Which results are given for AUAAAAGCGCCAGAAAUACAGAAAUGUAGUUGACGAGGAGGAGGUUUAUCGAAUUUUCGGCGUAUGCCUCCAAA?
Answer: kcat (glucosamine-6-phosphate [1]): < 1e-05 s⁻¹; self-cleavage kobs at 40 uM GlcN6P (glucosamine-6-phosphate [4]): < 1e-05 s⁻¹; self-cleavage kobs at 160 uM GlcN6P (glucosamine-6-phosphate [5]): < 1e-05 s⁻¹; self-cleavage kobs at 10000 uM GlcN6P (glucosamine-6-phosphate [3]): < 1e-05 s⁻¹

Question: Which results are given for AUAAAAGCGCCAGAACUACAGAAAUGUAGUUGACGAGGAGGAGGUUUAUCUAAUUUUCGGCGGAUGCCUGCAAA?
Answer: kcat (glucosamine-6-phosphate [1]): 3.09e-05 ± 1.2e-05 s⁻¹; self-cleavage kobs at 640 uM GlcN6P (glucosamine-6-phosphate [6]): 5.38e-05 ± 1.4e-05 s⁻¹; self-cleavage kobs at 2500 uM GlcN6P (glucosamine-6-phosphate [2]): 4.11e-05 ± 1e-05 s⁻¹

Question: Which kcat (glucosamine-6-phosphate [1]) does the source give for AUAAAAGCGCCAGUACUACAGAAAUGUAGUUGACGAGGAGGAGGUUUAUCGAAUUUUCGGCGGAUGGCUCCAAA here?
Answer: 0.000352 ± 8e-06 s⁻¹

Question: And the KM (glucosamine-6-phosphate [7])?
Answer: 1670 ± 68 µM

Question: What about the “self-cleavage kobs at 160 uM GlcN6P” value (glucosamine-6-phosphate [5]) of the same variant?
Answer: 3.01e-05 ± 6.5e-06 s⁻¹

Question: What about the “self-cleavage kobs at 640 uM GlcN6P” value (glucosamine-6-phosphate [6]) of the same variant?
Answer: 9.71e-05 ± 6.9e-06 s⁻¹

Question: And the “self-cleavage kobs at 2500 uM GlcN6P” value (glucosamine-6-phosphate [2])?
Answer: 0.000215 ± 1.7e-05 s⁻¹

Question: What about the “self-cleavage kobs at 10000 uM GlcN6P” value (glucosamine-6-phosphate [3]) of the same variant?
Answer: 0.000296 ± 2.9e-05 s⁻¹

Question: Which kcat (glucosamine-6-phosphate [1]) does the source give for AUAAAAGCGCCAGAACUACAGAAAUGUAGUUGACGAGGAGGAGGUUUAUCGAAUUUUCGACGGAUGCCGCCAAA here?
Answer: 1.18e-05 ± 5e-06 s⁻¹

Question: How did the kcat (glucosamine-6-phosphate [1]) turn out when AUAAAAGCGCCAGAACUACAGAAAUGUAGUUGACGAGGAGGAGGUUGAUCGAAUAUUCGGCGGAUGCCUCCAAA was run?
Answer: 0.00811 ± 0.0025 s⁻¹

Question: And the KM (glucosamine-6-phosphate [7])?
Answer: 1410 ± 600 µM

Question: And the “self-cleavage kobs at 40 uM GlcN6P” value (glucosamine-6-phosphate [4])?
Answer: 0.000281 ± 3.1e-05 s⁻¹

Question: And the “self-cleavage kobs at 160 uM GlcN6P” value (glucosamine-6-phosphate [5])?
Answer: 0.000855 ± 0.00014 s⁻¹

Question: What about the “self-cleavage kobs at 640 uM GlcN6P” value (glucosamine-6-phosphate [6]) of the same variant?
Answer: 0.00187 ± 0.00028 s⁻¹

Question: And the “self-cleavage kobs at 2500 uM GlcN6P” value (glucosamine-6-phosphate [2])?
Answer: 0.00514 ± 0.00081 s⁻¹

Question: And the “self-cleavage kobs at 10000 uM GlcN6P” value (glucosamine-6-phosphate [3])?
Answer: 0.00878 ± 0.0013 s⁻¹

Question: Which kcat (glucosamine-6-phosphate [1]) does the source give for AUAAAAGCGCCAGAACUACAGAAAUGUAGUUGACGAAGAGGAGGUUUAUCGAAUUUUCGGCGGAUGGCUCCAAA here?
Answer: 1.61e-05 ± 2e-06 s⁻¹

Question: Which results are given for AUAAAAGCGCCAGAACUACAGAAAUGUAGUUGACGAGGGGGAGGUUUAUCGAAUUUUAGGCGGAUGCCUCCAAA?
Answer: kcat (glucosamine-6-phosphate [1]): 0.00088 ± 0.00013 s⁻¹; KM (glucosamine-6-phosphate [7]): 4140 ± 1100 µM; self-cleavage kobs at 160 uM GlcN6P (glucosamine-6-phosphate [5]): 4.38e-05 ± 1.9e-05 s⁻¹; self-cleavage kobs at 640 uM GlcN6P (glucosamine-6-phosphate [6]): 0.000129 ± 3e-05 s⁻¹; self-cleavage kobs at 2500 uM GlcN6P (glucosamine-6-phosphate [2]): 0.000275 ± 6.4e-05 s⁻¹; self-cleavage kobs at 10000 uM GlcN6P (glucosamine-6-phosphate [3]): 0.000642 ± 7.7e-05 s⁻¹

Question: Which results are given for AUAAAAGCGCCAGAACUACAGAAAUGUAAUUUACGAGGAGGAGGUUUAUCGAAUUUUCGGCGGAUGCCUCCAAA?
Answer: kcat (glucosamine-6-phosphate [1]): 0.00277 ± 0.00084 s⁻¹; self-cleavage kobs at 640 uM GlcN6P (glucosamine-6-phosphate [6]): 7.58e-05 ± 1.8e-05 s⁻¹; self-cleavage kobs at 2500 uM GlcN6P (glucosamine-6-phosphate [2]): 0.000325 ± 5.7e-05 s⁻¹; self-cleavage kobs at 10000 uM GlcN6P (glucosamine-6-phosphate [3]): 0.000888 ± 0.00014 s⁻¹

Question: For AUAAAAGCGCCAGAACUACAGAAAUGUAUUUGUCGAGGAGGAGGUUUAUCGAAUUUUCGGCGGAUGCCUCCAAA, which kcat (glucosamine-6-phosphate [1]) is on record?
Answer: 6.61e-05 ± 1.9e-06 s⁻¹

Question: What about the KM (glucosamine-6-phosphate [7]) of the same variant?
Answer: 3280 ± 300 µM

Question: What about the “self-cleavage kobs at 2500 uM GlcN6P” value (glucosamine-6-phosphate [2]) of the same variant?
Answer: 2.87e-05 ± 9.6e-06 s⁻¹

Question: What about the “self-cleavage kobs at 10000 uM GlcN6P” value (glucosamine-6-phosphate [3]) of the same variant?
Answer: 4.97e-05 ± 6.7e-06 s⁻¹

Question: Which kcat (glucosamine-6-phosphate [1]) does the source give for AUAAAAGCGCCAGAACUACAGAAAUGUAGUUGACGAGGAGGAGGUUUAUCGACUUAUCGGCGGAUGCCUCCAAA here?
Answer: 0.00313 ± 0.00063 s⁻¹

Question: What about the KM (glucosamine-6-phosphate [7]) of the same variant?
Answer: 2700 ± 730 µM

Question: And the “self-cleavage kobs at 40 uM GlcN6P” value (glucosamine-6-phosphate [4])?
Answer: 4.81e-05 ± 7e-06 s⁻¹

Question: What about the “self-cleavage kobs at 160 uM GlcN6P” value (glucosamine-6-phosphate [5]) of the same variant?
Answer: 0.000205 ± 3.7e-05 s⁻¹

Question: And the “self-cleavage kobs at 640 uM GlcN6P” value (glucosamine-6-phosphate [6])?
Answer: 0.000467 ± 9.1e-05 s⁻¹

Question: What about the “self-cleavage kobs at 2500 uM GlcN6P” value (glucosamine-6-phosphate [2]) of the same variant?
Answer: 0.00171 ± 0.00027 s⁻¹

Question: And the “self-cleavage kobs at 10000 uM GlcN6P” value (glucosamine-6-phosphate [3])?
Answer: 0.00243 ± 0.00038 s⁻¹

Question: For AUAAAAGCGCCAGAACUACAGAAAUGUAGUUGACGAGGAGGAGGUUCAUCGAAUUCUCGGCGGAUGCCUCCAAA, which kcat (glucosamine-6-phosphate [1]) is on record?
Answer: 0.00115 ± 0.00017 s⁻¹

Question: And the KM (glucosamine-6-phosphate [7])?
Answer: 1940 ± 650 µM

Question: And the “self-cleavage kobs at 640 uM GlcN6P” value (glucosamine-6-phosphate [6])?
Answer: 0.000323 ± 7.3e-05 s⁻¹

Question: What about the “self-cleavage kobs at 2500 uM GlcN6P” value (glucosamine-6-phosphate [2]) of the same variant?
Answer: 0.00061 ± 0.00012 s⁻¹

Question: What about the “self-cleavage kobs at 10000 uM GlcN6P” value (glucosamine-6-phosphate [3]) of the same variant?
Answer: 0.000972 ± 0.00016 s⁻¹

Question: What does the source list for AUAAAAGCGCCAGAACUACAGAAAUGUAGUCGACGAGGAGGAGGUUUAUCGAAUUUUAGGCGGAUGCCUCCAAA?
Answer: kcat (glucosamine-6-phosphate [1]): 0.000146 ± 6.8e-06 s⁻¹; KM (glucosamine-6-phosphate [7]): 1390 ± 210 µM; self-cleavage kobs at 640 uM GlcN6P (glucosamine-6-phosphate [6]): 5.08e-05 ± 1.5e-05 s⁻¹; self-cleavage kobs at 2500 uM GlcN6P (glucosamine-6-phosphate [2]): 8.99e-05 ± 1.5e-05 s⁻¹; self-cleavage kobs at 10000 uM GlcN6P (glucosamine-6-phosphate [3]): 0.00013 ± 1.5e-05 s⁻¹

Question: How did the kcat (glucosamine-6-phosphate [1]) turn out when AUAAAAGCGCCAUAACUACAGAAAUGUAGUUGACGAGGAGGAGGUUAAUCGAAUUUUCGGCGGAUGCCUCCAAA was run?
Answer: 0.00106 ± 0.00021 s⁻¹

Question: And the KM (glucosamine-6-phosphate [7])?
Answer: 4310 ± 1300 µM

Question: What about the “self-cleavage kobs at 40 uM GlcN6P” value (glucosamine-6-phosphate [4]) of the same variant?
Answer: 2.95e-05 ± 1.5e-05 s⁻¹

Question: What about the “self-cleavage kobs at 160 uM GlcN6P” value (glucosamine-6-phosphate [5]) of the same variant?
Answer: 3.53e-05 ± 1.3e-05 s⁻¹

Question: What about the “self-cleavage kobs at 640 uM GlcN6P” value (glucosamine-6-phosphate [6]) of the same variant?
Answer: 0.000144 ± 1.5e-05 s⁻¹

Question: And the “self-cleavage kobs at 2500 uM GlcN6P” value (glucosamine-6-phosphate [2])?
Answer: 0.000332 ± 5e-05 s⁻¹

Question: And the “self-cleavage kobs at 10000 uM GlcN6P” value (glucosamine-6-phosphate [3])?
Answer: 0.000776 ± 8.7e-05 s⁻¹

Question: With AUAAAAGCGCCAGUACUACAGAAAUGUAGUUGACGAGGAGGAGGUUUAUCGAAUUUUCGGCGGAUGCCUACAAA as the variant, how does the kcat (glucosamine-6-phosphate [1]) read?
Answer: 0.000118 ± 4.4e-06 s⁻¹

Question: What about the KM (glucosamine-6-phosphate [7]) of the same variant?
Answer: 568 ± 71 µM

Question: And the “self-cleavage kobs at 160 uM GlcN6P” value (glucosamine-6-phosphate [5])?
Answer: 2.57e-05 ± 8.7e-06 s⁻¹

Question: And the “self-cleavage kobs at 640 uM GlcN6P” value (glucosamine-6-phosphate [6])?
Answer: 6.15e-05 ± 8e-06 s⁻¹

Question: And the “self-cleavage kobs at 2500 uM GlcN6P” value (glucosamine-6-phosphate [2])?
Answer: 9.59e-05 ± 1e-05 s⁻¹

Question: And the “self-cleavage kobs at 10000 uM GlcN6P” value (glucosamine-6-phosphate [3])?
Answer: 0.000112 ± 1.1e-05 s⁻¹

Question: With AUAAAAGCGCCAGAACUACAGAAAUGUAGUUGACGAGGAGGAGGUUUAUCGAAUUUCGGGCGGAUGCCUCCAAA as the variant, how does the kcat (glucosamine-6-phosphate [1]) read?
Answer: 3.57e-05 ± 4.2e-06 s⁻¹

Question: What about the “self-cleavage kobs at 10000 uM GlcN6P” value (glucosamine-6-phosphate [3]) of the same variant?
Answer: 3.19e-05 ± 1e-05 s⁻¹

Question: For AUAAAAGCGCCGGAACUACAGAAAUGUAGUUGACGAGGAGGAGGUUUGUCGAAUUUUCGGCGGAUGCCUCCAAA, which kcat (glucosamine-6-phosphate [1]) is on record?
Answer: 2.09e-05 ± 3.3e-06 s⁻¹

Question: And the “self-cleavage kobs at 40 uM GlcN6P” value (glucosamine-6-phosphate [4])?
Answer: < 1e-05 s⁻¹

Question: How did the kcat (glucosamine-6-phosphate [1]) turn out when AUAAAAGCGCCAGAAUUACAGAAAUGUAGUUGACGAGGAGGCGGUUUAUCGAAUUUUCGGCGGAUGCCUCCAAA was run?
Answer: 1.1e-05 ± 6.5e-07 s⁻¹
